# Substitutions are numbered along the chain they refer to.
# B1: Protein #2 (SEQ ID NO: 2 with a His-tag (SEQ ID NO: 1) fused to its N-terminus) (designed binder)
# chain: MRGSHHHHHHGSDLGKKLLEAARAGQDDEVRELLKAGADVNAKDYFSHTPLHLAARNGHLKIVEVLLKAGADVNAKDFAGKTPLHLAANEGHLEIVEVLLKAGADVNAQDIFGKTPADIAADAGHEDIAEVLQKAA
# B2: Protein #4 (SEQ ID NO: 4 with a His-tag (SEQ ID NO: 1) fused to its N-terminus) (designed binder)
# chain: B1 chain with N89D, E90A
# B3: Protein #3 (SEQ ID NO: 3 with a His-tag (SEQ ID NO: 1) fused to its N-terminus) (designed binder)
# chain: B1 chain with N89A, E90D
# Target: T1, human serum albumin (human, UniProt P02768 25-609)
# T1 sequence (P02768 25-609 limits assumed): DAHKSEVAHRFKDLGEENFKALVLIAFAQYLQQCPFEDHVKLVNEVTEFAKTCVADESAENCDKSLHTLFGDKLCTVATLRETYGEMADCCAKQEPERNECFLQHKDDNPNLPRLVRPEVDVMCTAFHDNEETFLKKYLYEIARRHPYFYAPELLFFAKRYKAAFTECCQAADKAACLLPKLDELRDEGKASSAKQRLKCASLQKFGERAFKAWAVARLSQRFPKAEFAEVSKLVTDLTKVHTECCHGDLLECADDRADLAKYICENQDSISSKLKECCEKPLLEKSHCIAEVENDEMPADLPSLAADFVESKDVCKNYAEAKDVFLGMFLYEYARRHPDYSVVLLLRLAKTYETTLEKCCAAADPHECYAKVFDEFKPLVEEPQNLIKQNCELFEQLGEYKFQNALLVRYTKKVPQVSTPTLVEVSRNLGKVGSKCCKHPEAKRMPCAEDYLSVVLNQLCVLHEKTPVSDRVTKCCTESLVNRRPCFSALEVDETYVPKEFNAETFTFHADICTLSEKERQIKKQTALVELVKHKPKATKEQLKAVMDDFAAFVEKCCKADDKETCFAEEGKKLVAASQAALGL
# Test: SPR, ProteOn system (BioRad), in PBS
# Experimental: Affinity of proteins of Example 2 to human serum albumin were determined by SPR measurements using a ProteOn system (BioRad) in PBS according to standard procedures known to the person skilled in the art.
row,Kd [nM],Binder
1,31.1,B1
2,34.4,B2
3,35.5,B3

# Target: T1, human serum albumin
# Test: ELISA, serum albumin immobilized on plate, in PBST-C
# Experimental: (§1) Samples of proteins of Example 2 were subjected to ELISA serum albumin cross-reactivity analyses as described in WO2016156596. 100 μl of 20 nM serum albumin in PBS per well were immobilized in a Maxisorp plate (Nunc, Denmark) overnight at 4° C. After washing 5 times with 300 μl PBST (PBS supplemented with 0.1% Tween 20), the wells were blocked with 300 μl PBST-C(PBST supplemented with 0.25% casein) for 2 h at room temperature with shaking at 450 rpm on a Titramax 1000 shaker (Heidolph, Germany). After washing 5 times as described above, 100 μl/well or 50 μl/well proteins #2, #3, or #4 (concentrations ranging from 100 nM to 0.01 pM for each protein) in PBST-C were applied and incubated for 2 h at room temperature with shaking at 450 rpm. After washing 5 times as described above, binding of the proteins was detected using 100 μl rabbit anti-designed ankyrin repeat domain monoclonal antibody in PBST-C for 1 h at room temperature with shaking at 450 rpm. After washing 5 times as described above, bound anti-designed ankyrin repeat domain antibody was detected using 100 μl/well goat anti-rabbit IgG-HRP conjugate in PBST-C for 1 h at room temperature with shaking at 450 rpm. After washing 5 times as described above, the ELISA was then developed using 100 μl BM soluble blue POD substrate (Roche, Switzerland), diluted 1:4 in water. The reaction was stopped after 5 min using 100 μl 1 M H2504. The OD (OD 450 nm-OD 620 nm) was then recorded. EC 50 values were determined using Graph Pad Prism (Table 3). […] The measured EC₅₀ values for cynomolgus monkey serum albumin binding are below 20 nM for proteins #2, #3, and #4.
row,EC50 [nM],Binder
1,0.32,B1
2,0.84,B2
3,0.64,B3

# Target: T2, mouse serum albumin (mouse, UniProt P07724 25-608)
# Test: as above
# Experimental: as §1
row,EC50 [nM],Binder
1,9.6,B1
2,24,B2
3,14.7,B3

# Target: T3, cynomolgus monkey serum albumin (cynomolgus monkey (Macaca fascicularis), UniProt A2V9Z4 25-608)
# T3 sequence (A2V9Z4 25-608 limits assumed): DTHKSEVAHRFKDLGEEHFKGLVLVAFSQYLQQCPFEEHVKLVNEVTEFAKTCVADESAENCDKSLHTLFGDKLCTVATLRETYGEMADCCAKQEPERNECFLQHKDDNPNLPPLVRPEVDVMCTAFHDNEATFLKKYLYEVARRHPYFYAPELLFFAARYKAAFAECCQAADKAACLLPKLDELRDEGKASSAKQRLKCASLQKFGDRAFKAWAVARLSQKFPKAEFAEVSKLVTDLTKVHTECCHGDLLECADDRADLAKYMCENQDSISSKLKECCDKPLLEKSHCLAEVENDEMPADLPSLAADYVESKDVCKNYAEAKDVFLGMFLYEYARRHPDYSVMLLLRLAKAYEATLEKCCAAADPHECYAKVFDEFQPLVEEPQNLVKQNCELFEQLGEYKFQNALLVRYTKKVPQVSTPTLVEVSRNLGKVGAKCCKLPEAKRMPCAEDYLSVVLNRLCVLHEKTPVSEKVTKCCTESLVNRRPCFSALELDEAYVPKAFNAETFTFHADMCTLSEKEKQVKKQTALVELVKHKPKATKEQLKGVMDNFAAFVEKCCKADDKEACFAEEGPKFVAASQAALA
# Test: as above
# Experimental: as §1
row,EC50 [nM],Binder
1,2.8,B1
2,13.1,B2
3,6.8,B3

# Target: T1, human serum albumin
# Test: as above
# Remark: another data set of the same source
# Experimental: as §1
row,EC50 [nM],Binder
1,< 1,B1
2,< 1,B2
3,< 1,B3

# Target: T2, mouse serum albumin
# Test: as above
# Remark: another data set of the same source
# Experimental: as §1
row,EC50 [nM],Binder
1,< 30,B1
2,< 30,B2
3,< 30,B3

# Target: T3, cynomolgus monkey serum albumin
# Test: as above
# Remark: another data set of the same source
# Experimental: as §1
row,EC50 [nM],Binder
1,< 20,B1
2,< 20,B2
3,< 20,B3
